Key:
C1q = assay: SPR (Biacore 8K+), antibody captured by anti-human IgG Fc, C1q injected at 25 nM, mean response
[1] = molecular target: cynomolgus FcRn (cynomolgus) (UniProt Q8SPV9); assay: SPR (Biacore 8K+), antibody captured by anti-human kappa, cynomolgus FcRn injected, pH 5.8; pH 5.8
human FcRn (human) = human FcRn (human) (UniProt P55899); assay: SPR (Biacore 8K+), antibody captured by anti-human kappa, human FcRn injected, pH 5.8; pH 5.8

C1q, sequence (P02745 23-245, chain 1 of 3): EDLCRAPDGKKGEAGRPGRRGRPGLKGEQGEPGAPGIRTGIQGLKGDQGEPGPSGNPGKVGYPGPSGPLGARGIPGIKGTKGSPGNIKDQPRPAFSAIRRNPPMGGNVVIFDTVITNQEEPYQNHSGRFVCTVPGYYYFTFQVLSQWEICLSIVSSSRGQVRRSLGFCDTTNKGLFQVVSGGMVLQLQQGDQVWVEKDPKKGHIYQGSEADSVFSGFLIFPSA
C1q, sequence (P02746 28-253, chain 2 of 3, further chain): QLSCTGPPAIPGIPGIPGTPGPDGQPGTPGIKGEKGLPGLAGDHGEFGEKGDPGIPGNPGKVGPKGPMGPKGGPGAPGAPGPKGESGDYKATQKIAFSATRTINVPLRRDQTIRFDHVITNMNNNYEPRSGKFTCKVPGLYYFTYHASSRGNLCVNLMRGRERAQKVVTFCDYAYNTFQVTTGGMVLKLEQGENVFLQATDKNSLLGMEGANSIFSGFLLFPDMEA
C1q, sequence (P02747 29-245, chain 3 of 3, further chain): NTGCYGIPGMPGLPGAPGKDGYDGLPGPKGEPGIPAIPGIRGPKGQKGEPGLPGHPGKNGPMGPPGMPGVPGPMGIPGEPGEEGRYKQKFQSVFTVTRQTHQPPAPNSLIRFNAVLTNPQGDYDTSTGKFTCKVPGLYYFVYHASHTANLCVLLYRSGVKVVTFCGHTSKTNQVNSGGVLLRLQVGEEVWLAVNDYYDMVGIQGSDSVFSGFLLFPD

| RU at 25 nM C1q (C1q) [RU] | Substance | Kd [1] [nM] | Kd (human FcRn (human)) [nM] |
| --- | --- | --- | --- |
| 386 | Rituximab, an anti-CD20 antibody | – | – |
| – | positive control based on the sequences of the anti-hOX40L antibody amlitelimab | 926 | 1110 |

Reference: patent publication US20260217843A1
